Assay: Viscosity measurement and state of medium composition
Type: physicochemical
Conditions: for viscosity: 37° C., 100 rpm
Description: Deacylated gellan gum (KELCOGEL CG-LA, manufactured by SANSHO Co., Ltd.) was suspended in pure water to 0.4% (w/v), and dissolved by stirring with heating at 90° C. This aqueous solution was allowed to cool to room temperature with stirring, and sterilized at 121° C. for 20 min in an autoclave. A 2-fold concentration of DMEM/F-12 medium (manufactured by Aldrich, 50 mL) and sterilization water (47.5 mL) were placed in a 300 mL tall beaker with stirring by a homomixer (3000 rpm) at room temperature, aqueous deacylated gellan gum solution (2.5 mL) was added, and the mixture was continuously stirred for 1 min to prepare a deacylated gellan gum medium composition with a final concentration of 0.01%. Medium compositions added with aqueous deacylated gellan gum solution with final concentrations of 0.02, 0.03 and 0.05% (w/v) were similarly prepared. The viscosity of the medium compositions was measured using an E type viscometer (manufactured by Toki Sangyo Co., Ltd., Viscometer TVE-22 L, standard roter 1° 34′×R24) under 37° C. condition at 100 rpm for 5 min.
The medium compositions prepared above were subjected to a suspension test of HeLa cell spheres and a viscosity measurement, in the same manner as with the deacylated gellan gum-containing medium. The viscosity of 1.0% (w/v) methylcellulose was measured at 50 rpm due to the measurement range of the apparatus.
In the same manner as in Reference Experimental Example 2, spheres of HeLa cells were formed, and several tens of the spheres were added to each medium (1 mL) prepared above, the mixture was stood still at 37° C. for 1 hr, and the suspended state of the sphere cells was visually observed. […] Furthermore, it was confirmed that addition of an equal amount of the medium to the cell suspension and centrifugation (300 to 400G, for 5 min) thereof result in sedimentation and recovery of the spheres of HeLa cells.
By a method similar to that for the polysaccharide mixture of Reference Experimental Example 9, DMEM/F-12 media containing deacylated gellan gum at a final concentration of 0.005, 0.01% (w/v) and other polysaccharide were prepared. The final concentration of polysaccharide was set to 0.1% (w/v) for xanthan gum, sodium alginate, locust bean gum, 0.2% (w/v) for methylcellulose, and 0.05% (w/v) for K-carageenan and diutan gum. The state of each medium composition and the viscosity measured by a method similar to that in Analysis Example 1 are shown in Tables 11-16.

**Q.** With collagen as the substance, how does the state (0.01% (w/v) in DMEM/F-12) read?
**A.** Its state is “liquid”.

**Q.** And the state (0.05% (w/v) in DMEM/F-12)?
**A.** The state was “liquid/solid”.

**Q.** What about the viscosity (0.05% (w/v) in DMEM/F-12) of the same substance?
**A.** The viscosity was “unmeasurable”.

**Q.** And the state (0.1% (w/v) in DMEM/F-12)?
**A.** Its state is “solid (gel)”.

**Q.** And the viscosity (0.1% (w/v) in DMEM/F-12)?
**A.** Its viscosity is “unmeasurable”.

**Q.** And the state (0.2% (w/v) in DMEM/F-12)?
**A.** Its state is “solid (gel)”.

**Q.** What about the viscosity (0.2% (w/v) in DMEM/F-12) of the same substance?
**A.** The viscosity was “unmeasurable”.

From US10487308B2, “Culture medium composition” (NISSAN CHEMICAL CORPORATION, priority 2014, dated 2019)
